Experimental data from PMC4838380 (Nucleic Acids Research, 2016).

Target: the molecule itself
Test: SEC

B1: Endonuclease MS from Thermococcus kodakarensis (TkoEndoMS), protein encoded by TK1898 (enzyme, UniProt Q5JER9 1-252, looked up)
chain: MSKDKVTVITSPSTEELVSLVNSALLEEAMLTIFARCKVHYDGRAKSELGSGDRVIIVKPDGSFLIHQSKKREPVNWQPPGSRVRLELRENPVLVSIRRKPRETLEVELEEVYMVSVFRAEDYEELALTGSEAEMAELIFENPEVIEPGFKPLFREKAIGTGIVDVLGRDSDGNIVVLELKRRRAELHAVRQLKSYVEILREEYGDKVRGILVAPSLTSGAKRLLEKEGLEFRKLEPPKRDSKKKGRQKTLF
  stoichiometry N: 2
